“Also recorded” adds a separate entry of the source.
Assays:
U937-CD200R cells = experiment: Cell binding to U937-CD200R cells by flow cytometry; conditions: 1, 4 and 24 hours at 37° C., anti-human IgG secondary, compared to DS-155
Description: U937 cells were re-suspended with a density of 0.1 million cells per test with 50 μL FACS buffer (1×PBS+2% FBS).
Treatment with CD200-Fc proteins (50 μL) was performed starting from 10 μg/mL with 3-fold dilutions up to 10 concentrations with FACS buffer and incubated for 1-hour, 4-hours and 24-hours at 37° C. At the end of each time point, cells were collected and washed. 10 μg/mL of anti-human secondary antibody was added and incubated for 30 minutes at 4° C. Cells were washed post incubation and stained to check viability (1 μL dye per million cells per mL 1×PBS) for 20 minutes at 4° C. Cells were washed and fixed with Fixation buffer (100 μL per test) at 4° C. for 20 minutes. Post incubation, cells were washed and the pellet was re-suspended in FACS buffer (100 μL per test) for data acquisition on the flow cytometer.
For the 24-hour time point, treatment with CD200-Fc protein was performed with cell culture media. Wash step=addition of 200 μL FACS buffer and centrifugation at 1400 RPM.
The binding of ARQ-234 to U937-CD200R cells was compared to a wild type control CD200-Fc (DS-155) at 1, 4 and 24 hrs at human physiological temperature (37° C.) and binding was detected using flow cytometry with an anti-human IgG antibody.

human CD200R = molecular target: T1, human CD200R (Homo sapiens, UniProt Q8TD46); experiment: BIAcore SPR binding of CD200-Fc to human CD200R
T1 construct: His; purchased Creative Biomart CD200R1-320H
T1 sequence (Q8TD46 25-348): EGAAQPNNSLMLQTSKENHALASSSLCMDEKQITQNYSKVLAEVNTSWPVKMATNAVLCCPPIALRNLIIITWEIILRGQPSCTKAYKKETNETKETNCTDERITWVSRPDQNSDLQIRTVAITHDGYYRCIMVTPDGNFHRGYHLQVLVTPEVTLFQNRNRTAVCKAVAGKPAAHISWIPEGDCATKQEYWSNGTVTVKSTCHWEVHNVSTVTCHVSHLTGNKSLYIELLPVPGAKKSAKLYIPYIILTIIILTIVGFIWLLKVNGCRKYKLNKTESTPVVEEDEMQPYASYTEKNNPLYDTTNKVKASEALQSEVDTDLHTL
Text: BIAcore instrumentation uses an optical method, Surface Plasmon Resonance (SPR), to measure the binding characteristics of two interacting molecules; in this case wild-type CD200-Fc or CD200-Fc mutants binding to the CD200 receptor (CD200R). The technique measures changes in the refractive index of one of the two interacting molecules captured on a chip (sensor) when the second molecule is flowed in solution over the captured partner. In these experiments CD200-Fc was immobilized on the chip (sensor) surface and CD200R was injected in an aqueous buffer over the captured CD200-Fc under continuous flow conditions. Changes in the CD200-Fc refractive index following CD200R binding were measured in real time and the result plotted as response units (RUs) versus time to generate sensorgrams.
The experiments were performed on a GE Healthcare BIAcore T200. Human, cynomolgus and mouse CD200R proteins were purchased from Creative Biomart (CD200R1-320H, CD200R1-3483C, CD200R1-3280M). All measurements were performed in duplicate.
For human CD200 constructs: anti-human Fc (GE Healthcare) was covalently immobilized on a BIAcore CM5 sensor chip (Cytiva, BR100530) by amine coupling using a Cytiva kit (BR100839) following the manufacturer's instructions, targeting immobilization of 8,000-11,000 RU. […]
For mouse CD200 constructs, muCD200R-Fc (Creative Biomart CD200R1-458M) diluted to 1 μg/mL in running buffer was flowed over the immobilized Anti-Human IgG Fc, with CD200 monomers serially diluted and flowed over captured CD200R. […] Data analysis: experimental sensorgrams were analyzed in BIAevaluation software (GE Healthcare). […] Closeness of fit was determined by algorithms provided by the manufacturer in the BIAevaluation software, and data accepted if the Chi^2 value was less than 10% of Rmax, and the U value was less than or equal to 15.

[1] = human CD200R, 25° C., mean of two runs

ARQ-234: mutated human CD200-Fc fusion protein: CD200 K130Y, I131Y directly fused to IgG4 Fc S228P, M428L, N434S
binding to U937-CD200R cells (U937-CD200R cells): superior binding of ARQ-234 to CD200R-expressing cells compared to DS-155; also recorded: more potent target engagement compared to DS-155 | ka (human CD200R; [1]): 221600 M⁻¹ s⁻¹ | kd (human CD200R; [1]): 0.0004675 s⁻¹ | fold greater affinity for human CD200 receptor than wild-type CD200-Fc (DS-155) (human CD200R; versus DS-155): approx. 84 fold

Source: patent US20260116946A1, “NOVEL CD200 FUSION PROTEINS” (DUCENTIS BIOTHERAPEUTICS LIMITED, priority 2022, published 2026)
